{"source": "paper PMC9979977", "molecular_target": "Borna disease virus 1 (BoDV-1) phosphoprotein (Borna disease virus 1)", "assay": "SEC-MALS; SEC-MALLS, Superdex 200 10/300, 20°C, 20 mM HEPES pH 7.5, 150 mM NaCl, 5%(v/v) glycerol; protein applied at 1-4 mg/ml; no concentration dependence of the oligomerization", "data": [{"substance": "Borna disease virus 1 (BoDV-1) phosphoprotein (natural protein)", "values": [{"measurement": "stoichiometry N", "value": 4}]}]}
